Measurements from US20250136677A1 (ZOETIS SERVICES, published 2025).
Like-named read-outs stand apart in the source and are kept apart here.

Key:
[1] = molecular target: T1, equine IL-31 protein (Equine_IL31) (equine); test: ELISA screening of hybridoma supernatants on equine IL-31
T1 construct: Recombinant equine IL-31
T1 chain: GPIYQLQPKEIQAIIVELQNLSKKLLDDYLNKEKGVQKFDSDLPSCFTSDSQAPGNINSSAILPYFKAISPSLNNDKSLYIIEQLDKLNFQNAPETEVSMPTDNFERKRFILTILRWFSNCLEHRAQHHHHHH

[2] = molecular target: T2, mutant feline IL-31 15H05 protein (Feline_IL31_15H05_mutant) (feline); test: indirect ELISA, IL-31 protein coated
T2 construct: also called feline 15H05 mutant; 15H05 IL-31 mutant
T2 chain: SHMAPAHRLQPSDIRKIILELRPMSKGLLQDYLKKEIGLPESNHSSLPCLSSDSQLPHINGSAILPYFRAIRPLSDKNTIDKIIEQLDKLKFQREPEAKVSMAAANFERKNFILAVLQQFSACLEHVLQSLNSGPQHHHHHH
Experimental: (§1) For the indirect ELISA method, antibody binding to wildtype and feline IL-31 15H05 mutant proteins was assessed. All nine canine monoclonal antibodies (ZIL1, ZIL8, ZIL8, ZIL11, ZIL69, ZIL94, ZIL154, ZIL159, and ZIL171) were capable of binding to wildtype feline IL-31 and binding was impacted by mutations in the mAb 15H05 epitope region confirming the correct binding phenotype determined during the initial screening used to identify them. In comparison, the 11E12 antibody bound to the wild-type feline IL-31 and its binding was not impacted by the mutations in the 15H05 epitope region as evidenced by the data in FIG. 4. To confirm binding, biacore analysis was performed using canine, feline, equine, human, feline 15H05 mutant, and feline 11E12 mutant IL-31 proteins as surfaces and a single test concentration of antibody. Similar to ELISA observations, all antibodies tested bound to wildtype feline IL-31. In agreement with the data described above in this section, mouse antibodies 11E12 and 15H05 both bound to canine and feline IL-31 surfaces. Three additional antibodies where shown to have this dual binding property, ZIL69 (partial canine binding), ZIL94, and ZIL159. From this group of nine fully canine antibodies, only ZIL1 and ZIL9 cross-reacted with equine IL-31. Of note, antibody 15H05 was the only one of all assayed herein that bound to canine, feline, and equine IL-31 indicating some level of epitope conservation across the three species. In contrast, none of the antibodies described herein bound to human IL-31. Additional biacore surfaces were used to verify ELISA observations showing differential binding of antibodies to wildtype feline IL-31 and two proteins with mutations in the 15H05 (15H05 mutant) or 11E12 (11E12 mutant) epitopes. […] In agreement with the ELISA results, all fully canine antibodies were impacted by the 15H05 mutation with the exception of ZIL94, ZIL154, and ZIL171 (partially affected). Differing results can be attributed to differences in the two assay methodologies.

[3] = molecular target: T3, wildtype feline IL-31 protein (Feline_IL31_wildtype) (feline); test: indirect ELISA, IL-31 protein coated
T3 construct: Full length feline IL-31 with C-terminal His tag, secreted from ExpiCHO cells; also called fIL-31
T3 chain: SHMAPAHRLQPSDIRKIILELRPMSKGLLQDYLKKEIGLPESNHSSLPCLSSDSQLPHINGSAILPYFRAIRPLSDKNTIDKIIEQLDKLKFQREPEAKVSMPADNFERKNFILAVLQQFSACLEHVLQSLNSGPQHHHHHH
Experimental: as §1

[4] = molecular target: T4, mutant feline IL-31 11E12 protein (Feline_IL31_11E12_mutant) (feline); test: SPR (Biacore), IL-31 surface, single antibody concentration
T4 construct: also called feline 11E12 mutant; 11E12 IL-31 mutant
T4 chain: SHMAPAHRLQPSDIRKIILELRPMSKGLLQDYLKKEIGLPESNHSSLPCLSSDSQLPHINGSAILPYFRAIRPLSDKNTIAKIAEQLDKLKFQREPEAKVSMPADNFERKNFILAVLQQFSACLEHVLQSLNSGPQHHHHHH

[5] = molecular target: T1, equine IL-31 protein (Equine_IL31); test: as above
human IL-31 = molecular target: T5, human IL-31 (human, UniProt Q6EBC2 24-164); test: as above
T5 sequence: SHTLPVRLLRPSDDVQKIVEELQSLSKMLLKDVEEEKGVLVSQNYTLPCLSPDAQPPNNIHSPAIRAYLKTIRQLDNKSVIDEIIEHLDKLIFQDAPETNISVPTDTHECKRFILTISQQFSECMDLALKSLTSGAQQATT

[6] = molecular target: T3, wildtype feline IL-31 protein …; test: cell-based or functional assay
[7] = molecular target: T6, canine IL-31 protein (Canine_IL31) (canine); test: SPR (Biacore), IL-31 protein as surface capture
T6 chain: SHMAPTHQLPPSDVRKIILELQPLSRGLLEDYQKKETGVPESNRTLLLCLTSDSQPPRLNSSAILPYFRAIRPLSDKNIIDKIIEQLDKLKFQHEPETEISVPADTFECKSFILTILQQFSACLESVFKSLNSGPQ

[8] = molecular target: T2, mutant feline IL-31 15H05 protein …; test: Biacore, IL-31 protein as surface capture
Experimental: (§2) The affinity with which candidate mAbs bind canine and feline IL-31 was determined using surface plasmon resonance (SPR) on a Biacore system (Biocore Life Sciences (GE Healthcare), Uppsala, Sweden). To avoid affinity differences associated with differential surface preparation that can occur when immobilizing antibodies to surfaces; a strategy was employed where IL-31 was directly conjugated to the surface. Immobilization was obtained by amine coupling 5 μg/mL IL-31 using N-hydroxysuccinimide (NHS)/1-Ethyl-3-(3-dimethylaminopropyl) carbodiimide (EDC) chemistry. Chips were quenched with ethanolamine and the affinity with which all candidate mAbs bound to the immobilized IL-31 was evaluated. All curves were fit to a 1:1 model. […] Results for affinity measurements are described herein.
(§3) Table 1 below describes the results for biacore analysis using multiple species of IL-31 protein as a surface capture.

[9] = molecular target: T6, canine IL-31 protein (Canine_IL31); test: cell-based or functional assay
[10] = molecular target: T4, mutant feline IL-31 11E12 protein …; test: SPR (Biacore), IL-31 protein as surface capture
Experimental: as §2, §3

[11] = molecular target: T3, wildtype feline IL-31 protein …; test: SPR (Biacore), IL-31 protein as surface capture
Experimental: as §2, §3

[12] = molecular target: T1, equine IL-31 protein (Equine_IL31); test: SPR (Biacore), IL-31 protein as surface capture
Experimental: as §2, §3

[13] = molecular target: T3, wildtype feline IL-31 protein …; test: cell-based or functional assay
[14] = molecular target: T3, wildtype feline IL-31 protein …; test: Biacore, feline IL-31 chip, mAb 100 nM, share of points within parent mean +/-3 SD; set-up: key: % of mutant data points within parent mAb mean ±3 SD
Excerpt: The region of an antibody responsible for antigen recognition represents the paratope. A paratope is created by a combination of amino acids in the complementarity determining regions (CDRs) of both the heavy and light chain variable regions. The binding between antibody and antigen is often mediated by side chains of CDR residues with side chains or carbohydrate moieties of the antigen. To help define critical side chains involved in antibody recognition alanine scanning mutagenesis was performed on each CDR residue in both the heavy and light chain. These mutants were then individually tested for the ability to bind feline IL-31 using the biacore and evaluated for inhibition of IL-31-mediated signaling in the FCWF-4 cell based assay.
(§4) The mean response unit of four replicates of the parent mAb+/−3 standard deviations was used to generate parameters to define a threshold of response units comprising both the on- and off-rates antibody binding (FIG. 22). The percentage of data points for each mutant fell within this threshold was then used to define a “% similarity score” (FIG. 23).

[15] = molecular target: T3, wildtype feline IL-31 protein …; test: as above; set-up: key: % of mutant data points within parent mAb mean ±3 SD
Excerpt: as §4

[16] = molecular target: T3, wildtype feline IL-31 protein …; test: cell-based or functional assay

B1: mouse anti equine IL-31 antibody 04H07 (antibody, V domains shown)
VH: QVQLQQPGAELVRPGASVKLSCKASGYTFTSYWMNWAKQRPGQGLEWIGMIDPSDSEIHYNQVFKDKATLTVDKSSSTAYMQLSSLTSEDSAVYYCARQDIVTTVDYWGQGTTLTVSS
VL: DIVMSQSPSSLAVSVGEKVTMSCKSSQSLLYSINQKNHLAWFQQKPGQSPKLLIYWASTRESGVPARFTGSGSGTDFTLTISSVKTEDLAVYYCQQGYTYPFTFGSGTKLEIK
notes: Mouse hybridoma antibody; also called Mu_04H07
binding result [1]: binds

B2: mouse anti equine IL-31 antibody 06A09 (antibody, V domains shown)
VH: QVQLQQPGAELVRPGASVKLSCKAYGYTFTSYWMNWVKQRPGQGLEWIGMIDPSDSETHYNQIFRDKATLTIDKSSSTAYMQLSSLTSEDSAVYFCARQDIVTTVDYWGQGTTLTVSS
VL: DIVMSQSPSSLAVSVGEKVTMSCKSSQSLLYSINQKNFLAWYQQKPGQSPKLLIYWASTRESGVPDRFTGSGSGTDFTLTISSVKSEDLAVYYCQQHYGYPFTFGSGTKLEIK
notes: Mouse hybridoma antibody; also called Mu_06A09
binding result [1]: binds

B3: ZIL154 (recombinant fully canine antibody) (antibody, V domains shown)
VH: EVHLVESGGDLVKPWGSLRLSCVASGFTFSDRGMSWVRQSPGKGLQWVAYIRYDGSRTDYADAVEGRFTISRDNAKNTLYLQMNSLRAEDTAVYYCARWDGSSFDYWGQGTLVTVSS
VL: DIVVTQTPLSLSVSPGETASFSCKASQSLLHSDGNTYLDWFRQKPGQSPQRLIYKVSNRDPGVPDRFSGSGSGTDFTLRISGVEADDAGLYYCMQAIHFPLTFGAGTKVELKR
notes: Fully canine IgG; also called CAN-ZIL154
ELISA OD [2]: 1.38 OD | ELISA OD [3]: 1.62 OD | binding result [4]: binds | binding result [5]: no binding | binding result (human IL-31): no binding

B4: ZTS-1505 (antibody)
heavy: QVLLVQSGAEVRTPGASVKIFCKASGYSFTSYTIHWLRQAPAQGLEWMGNINPTSGYTENNQRFKDRLTLTADTSTNTAYMELSSLRSADTAMYYCARWGFKYDGEWSFDVWGAGTTVTVSSASTTAPSVFPLAPSCGTTSGATVALACLVLGYFPEPVTVSWNSGALTSGVHTFPAVLQASGLYSLSSMVTVPSSRWLSDTFTCNVAHPPSNTKVDKTVRKTDHPPGPKPCDCPKCPPPEAAGAPSIFIFPPKPKDTLSISRTPEVTCLVVDLGPDDSDVQITWFVDNTQVYTAKTSPREEQFNSTYRVVSVLPILHQDWLKGKEFKCKVNSKSLPSPIERTISKAKGQPHEPQVYVLPPAQEELSRNKVSVTCLIKSFHPPDIAVEWEITGQPEPENNYRTTPPQLDSDGTYFVYSKLSVDRSHWQRGNTYTCSVSHEALHSHHTQKSLTQSPGK
light: EIQMTQSPSSLSASPGDRVTITCRASQGISIWLSWYQQKPGNIPKVLINKASNLHIGVPSRFSGSGSGTDFTLTISSLEPEDAATYYCLQSQTYPLTFGGGTKLEIKRSDAQPSVFLFQPSLDELHTGSASIVCILNDFYPKEVNVKWKVDGVVQNKGIQESTTEQNSKDSTYSLSSTLTMSSTEYQSHEKFSCEVTHKSLASTLVKSFQRSEC
% Inhibition Relative to Parent (pSTAT, FCWF-4 cells) [6]: 100% | Kd [7]: 0.00183 nM | binding result [8]: no binding | Inhibition of IL-31 induced pSTAT3 IC50 (µg/ml), Canine IL-31 on Canine DH82 cells [9]: 21.8 µg/ml | Kd [10]: 19.5 nM | Kd [11]: 0.575 nM | Kd [12]: 0.575 nM | Inhibition of IL-31 induced pSTAT3 IC50 (µg/ml), Feline IL-31 on Feline FCWF-4 cells [13]: 4.53 µg/ml | Binding Similarity score [14]: 97 | Binding Similarity score [15]: 97 | % Inhibition Relative to Parent (pSTAT, FCWF-4 cells) [16]: 100%
